# Source: patent US20160368965A1 (IMMATICS BIOTECHNOLOGIES, published 2016)
# Biological target: T1, HLA-A*02:01 (human)
# T1 construct: the tested peptide takes its place; also called peptide-receptive MHC molecules; MHC class I
# Test: UV-ligand exchange, anti-β2m ELISA; grade of peptide exchange yield
# Description: Candidate peptides for T cell based therapies according to the present invention were further tested for their MHC binding capacity (affinity). The individual peptide-MHC complexes were produced by UV-ligand exchange, where a UV-sensitive peptide is cleaved upon UV-irradiation, and exchanged with the peptide of interest as analyzed. Only peptide candidates that can effectively bind and stabilize the peptide-receptive MHC molecules prevent dissociation of the MHC complexes. To determine the yield of the exchange reaction, an ELISA was performed based on the detection of the light chain (β2m) of stabilized MHC complexes. The assay was performed as generally described in Rodenko et al. (Rodenko et al., 2006).
# 96 well MAXISorp plates (NUNC) were coated over night with 2 ug/ml streptavidin in PBS at room temperature, washed 4× and blocked for 1h at 37° C. in 2% BSA containing blocking buffer. Refolded HLA-A*02:01/MLA-001 monomers served as standards, covering the range of 15-500 ng/ml. Peptide-MHC monomers of the UV-exchange reaction were diluted 100 fold in blocking buffer. Samples were incubated for 1 h at 37° C., washed four times, incubated with 2 ug/ml HRP conjugated anti-β2m for 1h at 37° C., washed again and detected with TMB solution that is stopped with […]. Absorption was measured at 450 nm. Candidate peptides that show a high exchange yield (preferably higher than 50%, most preferred higher than 75%) are generally preferred for a generation and production of antibodies or fragments thereof, and/or T cell receptors or fragments thereof, as they show sufficient avidity to the MHC molecules and prevent dissociation of the MHC complexes.
row,Binder,peptide exchange yield
1,VLFDVTGQV [VLFDVTGQV (SEQ ID NO: 68)],50 to 75%
2,LLFGSDGYYV [LLFGSDGYYV (SEQ ID NO: 50)],50 to 75%
3,ALLTGIISKA [ALLTGIISKA (SEQ ID NO: 5)],50 to 75%
4,LTQPGPIASA [LTQPGPIASA (SEQ ID NO: 54)],50 to 75%
5,VMASPGGLSAV [VMASPGGLSAV (SEQ ID NO: 72)],50 to 75%
6,VLLPEGGITAI [VLLPEGGITAI (SEQ ID NO: 71)],50 to 75%
7,TLFSEPKFAQV [TLFSEPKFAQV (SEQ ID NO: 64)],≥ 75%
8,VMVDGKPVNL [VMVDGKPVNL (SEQ ID NO: 73)],≥ 75%
9,SVFPGARLL [SVFPGARLL (SEQ ID NO: 62)],10 to 20%
10,VIWGTDVNV [VIWGTDVNV (SEQ ID NO: 67)],≥ 75%
11,VVYEGQLISI [VVYEGQLISI (SEQ ID NO: 79)],50 to 75%
12,ALVDIVRSL [ALVDIVRSL (SEQ ID NO: 7)],50 to 75%

# Continued, values first:
row,peptide exchange yield,Binder
1,50 to 75%,ALTGIPLPLI [ALTGIPLPLI (SEQ ID NO: 6)]
2,≥ 75%,SLWEDYPHV [SLWEDYPHV (SEQ ID NO: 60)]
3,50 to 75%,LLSDPIPEV [LLSDPIPEV (SEQ ID NO: 52)]
4,50 to 75%,YIDKDLEYV [YIDKDLEYV (SEQ ID NO: 74)]
5,50 to 75%,SLQDTEEKSRS [SLQDTEEKSRS (SEQ ID NO: 78)]
6,50 to 75%,TLNEKLTAL [TLNEKLTAL (SEQ ID NO: 65)]
7,20 to 50%,RQYPWGVVQV [RQYPWGVVQV (SEQ ID NO: 58)]
8,≥ 75%,RLFPGSSFL [RLFPGSSFL (SEQ ID NO: 77)]
9,≥ 75%,SVTGIIVGV [SVTGIIVGV (SEQ ID NO: 63)]
10,20 to 50%,NLAPAPLNA [NLAPAPLNA (SEQ ID NO: 55)]
11,≥ 75%,VLGVIWGV [VLGVIWGV (SEQ ID NO: 70)]
12,50 to 75%,LLWDPSTGKQV [LLWDPSTGKQV (SEQ ID NO: 53)]
13,50 to 75%,VLFSGSLRL [VLFSGSLRL (SEQ ID NO: 69)]
14,50 to 75%,SLSESFFMV [SLSESFFMV (SEQ ID NO: 59)]
15,20 to 50%,SMYDGLLQA [SMYDGLLQA (SEQ ID NO: 61)]
16,20 to 50%,NLIGVTAEL [NLIGVTAEL (SEQ ID NO: 56)]
17,50 to 75%,RLSELGITQA [RLSELGITQA (SEQ ID NO: 57)]
18,20 to 50%,LLGPAGARA [LLGPAGARA (SEQ ID NO: 51)]
